In patent US9266964:
Substitutions are numbered along the chain they refer to.

B1: M206-A06 (Fab, V domains shown)
VH: EVQLLESGGGLVQPGGSLRLSCAASGFTFSNYMMGWVRQAPGKGLQWVSSISPSGGLTKYADSVKGRFTISRDNSKNTLYLQMNSLRAEDTAVYYCARVARGIAARSRTSYFDYWGQGTLVTVSS
VL: DIQMTQSPGTLSLSPGERATLSCRTSQFVNSNYLAWYQQTPGQAPRLLIYGASSRATGIPDRFSGTGYGTDFTLTISRLEPEDYGTYYCQQSSRTPWTFGQGTRVEIK
B2: M209-D02 (Fab, V domains shown)
VH: B1 VH with N31H, M33L, G35T, Q46E, S50Y, L57H, K59I, A104T, Y114D
VL: B1 VL
B3: M203-A03 (Fab, V domains shown)
VH: B1 VH with N31V, G35I, Q46E, L57Q, K59T
VL: B1 VL
B4: M205-C11 (Fab, V domains shown)
VH: B1 VH with N31Q, G35M, Q46E, S50R, L57S, K59L
VL: B1 VL
B5: M209-H07 (Fab, V domains shown)
VH: B1 VH with N31H, M33L, G35T, Q46E, S50Y, L57H, K59I, S107Q, F112Y
VL: B1 VL
B6: M210-H01 (Fab, V domains shown)
VH: B1 VH with N31H, M33L, G35T, Q46E, S50Y, L57H, K59I, T109N, Y111Q, F112Q
VL: B1 VL
B7: M209-B11 (Fab, V domains shown)
VH: B1 VH with N31H, M33L, G35T, Q46E, S50Y, L57H, K59I, S110R, F112I, Y114Q
VL: B1 VL
B8: M209-E03 (Fab, V domains shown)
VH: B1 VH with N31H, M33L, G35T, Q46E, S50Y, L57H, K59I, V99Q
VL: B1 VL
B9: M205-E11 (Fab, V domains shown)
VH: B1 VH with M33T, Q46E, L57K, K59D
VL: B1 VL
B10: M206-E02 (Fab, V domains shown)
VH: B1 VH with N31E, G35M, Q46E, S50V, L57Q, K59H
VL: B1 VL
B11: M204-A02 (Fab, V domains shown)
VH: B1 VH with N31D, G35T, S50Y, K59S
VL: B1 VL
B12: M209-H03 (Fab, V domains shown)
VH: B1 VH with N31H, M33L, G35T, Q46E, S50Y, L57H, K59I, R101Q, S110T, Y111Q
VL: B1 VL
B13: M206-F09 (Fab, V domains shown)
VH: B1 VH with N31V, G35S, Q46E, S52V, L57S, K59T
VL: B1 VL
B14: M206-H01 (Fab, V domains shown)
VH: B1 VH with N31E, G35V, Q46E, S50R, L57T, K59E
VL: B1 VL
B15: M209-C02 (Fab, V domains shown)
VH: B1 VH with N31H, M33L, G35T, Q46E, S50Y, L57H, K59I, A105Y, S107R
VL: B1 VL
B16: M209-D12 (Fab, V domains shown)
VH: B1 VH with N31H, M33L, G35T, Q46E, S50Y, L57H, K59I, R98T, Y114Q
VL: B1 VL
B17: M209-G07 (Fab, V domains shown)
VH: B1 VH with N31H, M33L, G35T, Q46E, S50Y, L57H, K59I, Y114T
VL: B1 VL
B18: M208-A10 (Fab, V domains shown)
VH: B1 VH with N31H, M33L, G35T, Q46E, S50Y, L57H, K59I, Y111Q, Y114H
VL: B1 VL
B19: M209-H09 (Fab, V domains shown)
VH: B1 VH with N31H, M33L, G35T, Q46E, S50Y, L57H, K59I, S110V, Y114H
VL: B1 VL
B20: M207-A04 (Fab, V domains shown)
VH: B1 VH with N31H, M33L, G35T, Q46E, S50Y, L57H, K59I, S110R, Y111S
VL: B1 VL
B21: M204-E12 (Fab, V domains shown)
VH: B1 VH with N31T, G35Q, Q46E, S50Y, S52G, L57K, K59D
VL: B1 VL
B22: M208-G02 (Fab, V domains shown)
VH: B1 VH with N31H, M33L, G35T, Q46E, S50Y, L57H, K59I, A105D, F112S
VL: B1 VL
B23: M207-A01 (Fab, V domains shown)
VH: B1 VH with N31H, M33L, G35T, Q46E, S50Y, L57H, K59I, A104S, Y111C
VL: B1 VL
B24: M206-H05 (Fab, V domains shown)
VH: B1 VH with N31G, M33K, G35Q, Q46E, L57I, K59M
VL: B1 VL
B25: M205-H08 (Fab, V domains shown)
VH: B1 VH with N31D, G35M, Q46E, S52V, L57H, K59Q
VL: B1 VL
B26: M209-G01 (Fab, V domains shown)
VH: EVQLLESGGGLVQPGGSLRLSCAASGFTFSHYLMTWVRQAPGKGLEWVSYISPSGGHTIYADSVKGRFTISRDNSKNTLYLQMNSLRAEDTAVYYCARVAQGISGRSRLSYVDYWGQGTLVTVSS
VL: B1 VL
B27: M207-A02 (Fab, V domains shown)
VH: B26 VH with V93L, Q101R, S104A, G105A, L109T, S110I, Y111N, V112L
VL: B1 VL
B28: M205-B04 (Fab, V domains shown)
VH: B1 VH with M33D, G35I, Q46E, P53S, L57T
VL: B1 VL
B29: M206-C03 (Fab, V domains shown)
VH: B1 VH with N31Q, G35V, Q46E, S52Y, P53S, L57N, K59P
VL: B1 VL
B30: M205-H01 (Fab, V domains shown)
VH: B1 VH with M33T, G35Q, S50Y, L57Y, K59G
VL: B1 VL
B31: M205-A02 (Fab, V domains shown)
VH: B1 VH with N31T, M33L, G35A, Q46E, S50G, S52V, P53S, L57R, K59L
VL: B1 VL
B32: M208-B01 (Fab, V domains shown)
VH: B26 VH with Q101R, S104A, G105A, L109T, Y111F, V112F, Y114Q
VL: B1 VL
B33: M210-A06 (Fab, V domains shown)
VH: B26 VH with Q101R, S104A, G105A, L109T, Y111Q, V112F
VL: B1 VL

molecular target: human plasma kallikrein (human, UniProt P03952 20-390; P03952 391-638); experiment: cell-based or functional assay
Sequence (P03952 20-390, chain 1 of 2): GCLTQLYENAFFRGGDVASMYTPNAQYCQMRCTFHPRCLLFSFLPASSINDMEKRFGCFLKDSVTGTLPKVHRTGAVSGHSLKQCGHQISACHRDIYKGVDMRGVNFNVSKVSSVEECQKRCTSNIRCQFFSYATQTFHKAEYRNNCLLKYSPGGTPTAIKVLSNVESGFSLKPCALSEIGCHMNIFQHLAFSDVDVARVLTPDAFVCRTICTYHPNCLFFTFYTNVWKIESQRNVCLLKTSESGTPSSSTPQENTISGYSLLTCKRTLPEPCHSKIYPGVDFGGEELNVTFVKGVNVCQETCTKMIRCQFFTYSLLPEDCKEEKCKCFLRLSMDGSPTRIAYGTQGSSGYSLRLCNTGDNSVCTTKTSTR
Sequence (P03952 391-638, chain 2 of 2): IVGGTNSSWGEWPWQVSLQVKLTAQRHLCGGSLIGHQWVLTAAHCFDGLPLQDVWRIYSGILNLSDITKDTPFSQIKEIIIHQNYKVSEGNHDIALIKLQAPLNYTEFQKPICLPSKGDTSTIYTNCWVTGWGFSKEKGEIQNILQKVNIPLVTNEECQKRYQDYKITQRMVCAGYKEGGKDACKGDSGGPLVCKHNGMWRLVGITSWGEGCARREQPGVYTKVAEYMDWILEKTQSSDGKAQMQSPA

First: B1
Second: B2
The “% inhibition at 10 nM” value of the first is higher: 93% for the first, 74.7% for the second.

Going from B3 to B4, the “% inhibition at 10 nM” value rises from 69.1% to 86.5%.

Compared with B5, B6 is higher in “% inhibition at 10 nM” value: 76.1% for the first, 85.5% for the second.

Going from B7 to B8, the “% inhibition at 10 nM” value falls from 87.3% to 68.8%.

Going from B9 to B10, the “% inhibition at 10 nM” value falls from 78.2% to 77.6%.

Going from B11 to B12, the “% inhibition at 10 nM” value falls from 89.5% to 82.6%.

Going from B13 to B14, the “% inhibition at 10 nM” value rises from 86.8% to 87.6%.

Compared with B15, B16 is lower in “% inhibition at 10 nM” value: 86.8% for the first, 85.4% for the second.

First: B17
Second: B18
The “% inhibition at 10 nM” value of the first is higher: 89.8% for the first, 78.5% for the second.

Compared with B19, B20 is higher in “% inhibition at 10 nM” value: 85.3% for the first, 90.9% for the second.

First: B21
Second: B22
The “% inhibition at 10 nM” value of the first is lower: 84.1% for the first, 86.7% for the second.

First: B23
Second: B24
The “% inhibition at 10 nM” value of the first is lower: 67.2% for the first, 82.5% for the second.

Compared with B25, B26 is lower in “% inhibition at 10 nM” value: 85.9% for the first, 74.8% for the second.

Compared with B27, B28 is lower in “% inhibition at 10 nM” value: 76.6% for the first, 71.1% for the second.

Going from B29 to B30, the “% inhibition at 10 nM” value rises from 65.5% to 77.1%.

Going from B31 to B32, the “% inhibition at 10 nM” value rises from 80.3% to 90.1%.

In the case of B33, the “% inhibition at 10 nM” value is reported as 74.8%.
